Common to all, as to experiment: cell-based or functional assay
In experiment [1] the target is myc-L1-CAM-YH (rat (variant of rat L1-CAM)) (UniProt Q05695).
The target in experiment [2] is myc-L1-CAM (myc-tagged rat L1-CAM variant expressed from pMyc-L1-CAM) (rat (variant of rat L1-CAM)) (UniProt Q05695).
For experiment [3], the target named is myc-L1-CAM-YF (rat (variant of rat L1-CAM)) (UniProt Q05695).
The target in experiment [4] is cell-surface L1-CAM of mouse cerebellar granular neurons (mouse) (UniProt P11627).
Sequence of cell-surface L1-CAM of mouse cerebellar granular neurons (mouse) (P11627 20-1260): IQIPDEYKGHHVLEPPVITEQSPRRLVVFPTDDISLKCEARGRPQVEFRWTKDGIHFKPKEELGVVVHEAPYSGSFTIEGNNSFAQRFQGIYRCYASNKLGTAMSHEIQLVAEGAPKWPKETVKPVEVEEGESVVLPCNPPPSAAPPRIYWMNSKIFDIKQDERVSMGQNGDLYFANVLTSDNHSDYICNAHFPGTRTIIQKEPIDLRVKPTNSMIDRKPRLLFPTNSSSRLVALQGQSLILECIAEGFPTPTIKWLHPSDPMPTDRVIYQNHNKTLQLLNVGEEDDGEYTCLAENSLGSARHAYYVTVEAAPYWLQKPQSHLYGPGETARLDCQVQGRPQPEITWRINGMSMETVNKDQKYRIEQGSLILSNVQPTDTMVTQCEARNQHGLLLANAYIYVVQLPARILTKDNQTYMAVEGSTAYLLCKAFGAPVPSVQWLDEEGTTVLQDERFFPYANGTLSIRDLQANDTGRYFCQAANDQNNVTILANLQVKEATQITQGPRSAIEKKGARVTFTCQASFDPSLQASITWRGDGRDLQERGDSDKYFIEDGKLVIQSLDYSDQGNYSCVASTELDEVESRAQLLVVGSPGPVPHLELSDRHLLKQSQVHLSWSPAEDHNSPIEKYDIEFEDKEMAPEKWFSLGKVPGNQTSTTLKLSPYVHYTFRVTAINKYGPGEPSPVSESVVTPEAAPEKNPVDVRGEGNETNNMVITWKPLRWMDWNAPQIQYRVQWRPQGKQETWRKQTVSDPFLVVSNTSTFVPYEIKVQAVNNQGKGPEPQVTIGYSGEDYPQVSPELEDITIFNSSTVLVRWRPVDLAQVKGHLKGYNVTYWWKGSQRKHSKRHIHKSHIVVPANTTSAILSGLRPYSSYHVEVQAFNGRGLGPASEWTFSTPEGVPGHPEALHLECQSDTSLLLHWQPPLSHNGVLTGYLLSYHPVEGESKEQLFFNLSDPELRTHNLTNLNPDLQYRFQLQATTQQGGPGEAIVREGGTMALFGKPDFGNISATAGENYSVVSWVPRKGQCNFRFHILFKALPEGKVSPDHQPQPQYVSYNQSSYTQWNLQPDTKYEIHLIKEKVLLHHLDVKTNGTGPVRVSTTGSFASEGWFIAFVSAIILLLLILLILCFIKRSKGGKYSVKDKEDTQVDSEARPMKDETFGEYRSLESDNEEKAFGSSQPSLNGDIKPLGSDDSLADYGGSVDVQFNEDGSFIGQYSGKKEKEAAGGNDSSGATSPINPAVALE

Sequence of myc-L1-CAM (myc-tagged rat L1-CAM variant expressed from pMyc-L1-CAM) (rat (variant of rat L1-CAM)) (Q05695 other isoform, or with tags, fused parts or gaps mutant limits assumed): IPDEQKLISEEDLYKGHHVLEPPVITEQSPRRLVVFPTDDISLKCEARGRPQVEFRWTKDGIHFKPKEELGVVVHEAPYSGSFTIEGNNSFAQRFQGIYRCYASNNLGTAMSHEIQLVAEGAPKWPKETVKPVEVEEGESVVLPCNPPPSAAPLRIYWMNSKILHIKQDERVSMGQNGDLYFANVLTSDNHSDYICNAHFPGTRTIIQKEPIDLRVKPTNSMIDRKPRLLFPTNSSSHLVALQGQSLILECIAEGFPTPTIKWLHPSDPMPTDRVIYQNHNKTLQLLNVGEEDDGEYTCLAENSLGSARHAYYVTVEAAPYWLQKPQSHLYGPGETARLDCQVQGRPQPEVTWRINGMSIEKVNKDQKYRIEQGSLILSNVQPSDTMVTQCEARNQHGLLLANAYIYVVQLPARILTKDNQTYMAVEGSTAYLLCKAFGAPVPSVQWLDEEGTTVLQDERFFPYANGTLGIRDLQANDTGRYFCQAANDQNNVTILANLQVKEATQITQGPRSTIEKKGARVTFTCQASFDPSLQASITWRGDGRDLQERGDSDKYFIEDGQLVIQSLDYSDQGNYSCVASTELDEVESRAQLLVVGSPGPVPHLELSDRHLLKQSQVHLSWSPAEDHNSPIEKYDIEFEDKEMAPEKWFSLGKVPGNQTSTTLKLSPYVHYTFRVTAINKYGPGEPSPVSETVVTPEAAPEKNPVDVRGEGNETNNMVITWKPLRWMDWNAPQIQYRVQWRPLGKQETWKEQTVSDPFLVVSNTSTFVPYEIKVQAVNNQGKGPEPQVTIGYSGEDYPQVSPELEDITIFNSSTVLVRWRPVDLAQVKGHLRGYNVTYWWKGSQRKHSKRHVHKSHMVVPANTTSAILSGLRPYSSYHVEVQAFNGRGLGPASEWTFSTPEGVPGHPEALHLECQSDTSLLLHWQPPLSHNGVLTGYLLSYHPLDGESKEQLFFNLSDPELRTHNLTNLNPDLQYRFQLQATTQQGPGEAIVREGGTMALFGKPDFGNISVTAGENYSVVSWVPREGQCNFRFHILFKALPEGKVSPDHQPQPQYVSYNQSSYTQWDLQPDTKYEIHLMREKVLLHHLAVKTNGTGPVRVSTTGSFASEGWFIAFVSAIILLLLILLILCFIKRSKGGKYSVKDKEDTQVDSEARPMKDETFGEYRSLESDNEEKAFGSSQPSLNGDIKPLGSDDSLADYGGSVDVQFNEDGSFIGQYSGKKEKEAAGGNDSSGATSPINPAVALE
Sequence of myc-L1-CAM-YF (rat (variant of rat L1-CAM)) (Q05695 other isoform, or with tags, fused parts or gaps mutant): as the sequence (Q05695 other isoform, or with tags, fused parts or gaps mutant limits assumed) above
Sequence of myc-L1-CAM-YH (rat (variant of rat L1-CAM)) (Q05695 other isoform, or with tags, fused parts or gaps mutant): as the sequence (Q05695 other isoform, or with tags, fused parts or gaps mutant limits assumed) above

In experiment [1], ankyrin B (endogenous in ND-7 cells) came in with a % of trials with retrograde movement of L1-CAM-bound beads of 92.9% and a % of trials with stationary behavior of L1-CAM-bound beads of 0%. In experiment [2], this substance had a % of trials with retrograde movement of L1-CAM-bound beads (wild-type, untreated ND-7 cells) of 61.9%; a % of trials with retrograde transport of 9E10-coated beads (wild-type L1-CAM) of 68.9%; a % of trials with retrograde transport of L1-CAM-bound beads after NGF treatment (100 ng/mL, 1 hour) of 100%; a % of trials with stationary behavior of L1-CAM-bound beads (wild-type, untreated ND-7 cells) of 28.6%. This substance returned a % of trials with stationary behavior of L1-CAM-bound beads after NGF treatment (100 ng/mL, 1 hour) in experiment [2] of 18.2%. In experiment [3], this substance returned a % of trials with retrograde movement of L1-CAM-bound beads of 37.5% and a % of trials with stationary behavior of L1-CAM-bound beads of 62.5%.

In experiment [4], “chick Ng-CAM (chick homolog of L1-CAM) (from UniProt Q03696 21-1266) (receptor)” had a neurite extension of mouse cerebellar granular neurons on Ng-CAM after 24 h, with AP-YF peptide (30 µg/ml) of 32 µm; a neurite extension of mouse cerebellar granular neurons on Ng-CAM after 24 h, with control AP-Scramble peptide of 21 µm; a neurite extension on Ng-CAM with AP-YF above the level with control peptide of 55%.

(Values after patent publication US20060142189A1.)
